The results in this text go back to patent US20090280138A1 (OXFORD BIOMEDICA UK, published 2009).

For one experiment, the target named is T1, MHC class I allele A*0101 monomer (human, biotinylated, bound to streptavidin-coated plate).
T1 construct: placeholder peptide and b2M removed, then reconstituted with test peptide and fresh b2M; also called A1; HLA-A1
Description: iTopia, multiparametric iScore. The protocol:
(§1) The 9 mers were tested for Peptide Binding, Off Rate and Affinity using iTopia Epitope Discovery System in accordance with the manufacturer's instructions. Briefly, 96 well microtitre plates coated with MHC molecules representing different MHC alleles are used to identify candidate peptides. […] Determinations are performed in duplicate using an ELISA plate reader and included allele specific positive controls.
(§2) Finally, multiparametric analysis is performed on the results from these assays and an iScore is generated. The iScore represents a measure of the overall quality of peptide-MHC binding, enabling candidate peptides to be ranked in order of binding quality and allowing rational prioritisation of peptides for functional cellular follow-up studies.
PHIRVFLDN [5T4 9-mer peptide 143]: the iScore was found to be 0.
The same measure, in the same setting: under EKMRNRVLL [5T4 9-mer peptide 164] stands 0; under DPILPPSLQ [5T4 9-mer peptide 173], 0; under PPSLQTSYV [5T4 9-mer peptide 175], 0.
Still for that read-out and setting: under LDNNPWVCD [5T4 9-mer peptide 146] stands 0.
Still for that read-out and setting: to DLDCDPILP [5T4 9-mer peptide 171] belongs 0.
Molecule LKETEVVQG [5T4 9-mer peptide 155] gave an iScore of 0.
With VLLELNSAD [5T4 9-mer peptide 167], the iScore came out at 0.
On the same count and under the same terms, under SYVFLGIVL [5T4 9-mer peptide 178] stands 0.
On the same count and under the same terms, to QTSYVFLGI [5T4 9-mer peptide 177] belongs 0.027.
The same measure, in the same setting: to VCDCHMADM [5T4 9-mer peptide 149] belongs 0; to MVTWLKETE [5T4 9-mer peptide 153], 0.
As for NGTLAELQG [5T4 9-mer peptide 138], the iScore is 0.
Still for that read-out and setting: under GKDRLTCAY [5T4 9-mer peptide 159] stands 0.
Same read-out and setting: to TWLKETEVV [5T4 9-mer peptide 154] belongs 0; to NNPWVCDCH [5T4 9-mer peptide 147], 0; to DRLTCAYPE [5T4 9-mer peptide 160], 0.
On the same count and under the same terms, under PWVCDCHMA [5T4 9-mer peptide 148] stands 0.
In turn, SADLDCDPI [5T4 9-mer peptide 170] yielded an iScore of 0.
DCHMADMVT [5T4 9-mer peptide 150]: the iScore was 0.
The same measure, in the same setting: under AELQGLPHI [5T4 9-mer peptide 140] stands 0.
EVVQGKDRL [5T4 9-mer peptide 157] came in with an iScore of 0.
Same read-out and setting: under ADMVTWLKE [5T4 9-mer peptide 152] stands 0; under NRVLLELNS [5T4 9-mer peptide 166], 0; under LGIVLALIG [5T4 9-mer peptide 180], 0.
Turning to CAYPEKMRN [5T4 9-mer peptide 162], the iScore turned out to be 0.
Still for that read-out and setting: to MRNRVLLEL [5T4 9-mer peptide 165] belongs 0; to TLAELQGLP [5T4 9-mer peptide 139], 0; to IRVFLDNNP [5T4 9-mer peptide 144], 0.
Same read-out and setting: under LELNSADLD [5T4 9-mer peptide 168] stands 0.
Turning to VFLDNNPWV [5T4 9-mer peptide 145], the iScore came to 0.
The molecule LNSADLDCD [5T4 9-mer peptide 169] returned an iScore of 0.
Same read-out and setting: to DCDPILPPS [5T4 9-mer peptide 172] belongs 0; to LQGLPHIRV [5T4 9-mer peptide 141], 0.
Still for that read-out and setting: under ETEVVQGKD [5T4 9-mer peptide 156] stands 0.
Same read-out and setting: to VQGKDRLTC [5T4 9-mer peptide 158] belongs 0.

The target in another experiment is T2, MHC class I allele B*0702 monomer (human, biotinylated, bound to streptavidin-coated plate).
T2 construct: also called B7; HLA-B7
Description: iTopia, multiparametric iScore. As for the experimental part:
as §1, §2
Take PHIRVFLDN [5T4 9-mer peptide 143]: the iScore was 0.
On the same count and under the same terms, to EKMRNRVLL [5T4 9-mer peptide 164] belongs 0; to DPILPPSLQ [5T4 9-mer peptide 173], 0.
As to PPSLQTSYV [5T4 9-mer peptide 175], the iScore was determined as 0.
On the same count and under the same terms, under LDNNPWVCD [5T4 9-mer peptide 146] stands 0; under DLDCDPILP [5T4 9-mer peptide 171], 0.
Same read-out and setting: to LKETEVVQG [5T4 9-mer peptide 155] belongs 0; to VLLELNSAD [5T4 9-mer peptide 167], 0.
Still for that read-out and setting: to SYVFLGIVL [5T4 9-mer peptide 178] belongs 0.045; to QTSYVFLGI [5T4 9-mer peptide 177], 0; to VCDCHMADM [5T4 9-mer peptide 149], 0.
In turn, MVTWLKETE [5T4 9-mer peptide 153] showed an iScore of 0.
The same measure, in the same setting: under NGTLAELQG [5T4 9-mer peptide 138] stands 0; under GKDRLTCAY [5T4 9-mer peptide 159], 0.
Still for that read-out and setting: under TWLKETEVV [5T4 9-mer peptide 154] stands 0.
Same read-out and setting: under NNPWVCDCH [5T4 9-mer peptide 147] stands 0; under DRLTCAYPE [5T4 9-mer peptide 160], 0; under PWVCDCHMA [5T4 9-mer peptide 148], 0.
With SADLDCDPI [5T4 9-mer peptide 170], the iScore is 0.
In turn, DCHMADMVT [5T4 9-mer peptide 150] registered an iScore of 0.
On the same count and under the same terms, under AELQGLPHI [5T4 9-mer peptide 140] stands 0; under EVVQGKDRL [5T4 9-mer peptide 157], 0.
With ADMVTWLKE [5T4 9-mer peptide 152], the iScore stood at 0.
Same read-out and setting: to NRVLLELNS [5T4 9-mer peptide 166] belongs 0; to LGIVLALIG [5T4 9-mer peptide 180], 0.
On the same count and under the same terms, to CAYPEKMRN [5T4 9-mer peptide 162] belongs 0; to MRNRVLLEL [5T4 9-mer peptide 165], 0.
On the same count and under the same terms, to TLAELQGLP [5T4 9-mer peptide 139] belongs 0; to IRVFLDNNP [5T4 9-mer peptide 144], 0.
Molecule LELNSADLD [5T4 9-mer peptide 168] yielded an iScore of 0.
On the same count and under the same terms, under VFLDNNPWV [5T4 9-mer peptide 145] stands 0.
Molecule LNSADLDCD [5T4 9-mer peptide 169] showed an iScore of 0.
Molecule DCDPILPPS [5T4 9-mer peptide 172] gave an iScore of 0.
Still for that read-out and setting: to LQGLPHIRV [5T4 9-mer peptide 141] belongs 0.
Same read-out and setting: under ETEVVQGKD [5T4 9-mer peptide 156] stands 0; under VQGKDRLTC [5T4 9-mer peptide 158], 0.

In another experiment the target is T3, MHC class I allele A*0301 monomer (human, biotinylated, bound to streptavidin-coated plate).
T3 construct: also called A3; HLA-A3
Description: iTopia, multiparametric iScore. The protocol:
as §1, §2
Molecule PHIRVFLDN [5T4 9-mer peptide 143] showed an iScore of 0.
Same read-out and setting: to EKMRNRVLL [5T4 9-mer peptide 164] belongs 0.
DPILPPSLQ [5T4 9-mer peptide 173]: the iScore worked out at 0.
With PPSLQTSYV [5T4 9-mer peptide 175], the iScore amounted to 0.
The same measure, in the same setting: under LDNNPWVCD [5T4 9-mer peptide 146] stands 0; under DLDCDPILP [5T4 9-mer peptide 171], 0; under LKETEVVQG [5T4 9-mer peptide 155], 0.
The molecule VLLELNSAD [5T4 9-mer peptide 167] gave an iScore of 0.
The same measure, in the same setting: under SYVFLGIVL [5T4 9-mer peptide 178] stands 0; under QTSYVFLGI [5T4 9-mer peptide 177], 0.
Same read-out and setting: to VCDCHMADM [5T4 9-mer peptide 149] belongs 0; to MVTWLKETE [5T4 9-mer peptide 153], 0; to NGTLAELQG [5T4 9-mer peptide 138], 0.
Molecule GKDRLTCAY [5T4 9-mer peptide 159] displayed an iScore of 0.
Turning to TWLKETEVV [5T4 9-mer peptide 154], the iScore is 0.
Same read-out and setting: to NNPWVCDCH [5T4 9-mer peptide 147] belongs 0.051.
The molecule DRLTCAYPE [5T4 9-mer peptide 160] showed an iScore of 0.
Same read-out and setting: under PWVCDCHMA [5T4 9-mer peptide 148] stands 0; under SADLDCDPI [5T4 9-mer peptide 170], 0.
The same measure, in the same setting: under DCHMADMVT [5T4 9-mer peptide 150] stands 0.
For AELQGLPHI [5T4 9-mer peptide 140], the iScore amounted to 0.
The same measure, in the same setting: under EVVQGKDRL [5T4 9-mer peptide 157] stands 0.
Same read-out and setting: to ADMVTWLKE [5T4 9-mer peptide 152] belongs 0; to NRVLLELNS [5T4 9-mer peptide 166], 0.
The same measure, in the same setting: to LGIVLALIG [5T4 9-mer peptide 180] belongs 0; to CAYPEKMRN [5T4 9-mer peptide 162], 0; to MRNRVLLEL [5T4 9-mer peptide 165], 0.
TLAELQGLP [5T4 9-mer peptide 139] displayed an iScore of 0.
Still for that read-out and setting: to IRVFLDNNP [5T4 9-mer peptide 144] belongs 0; to LELNSADLD [5T4 9-mer peptide 168], 0.
On the same count and under the same terms, under VFLDNNPWV [5T4 9-mer peptide 145] stands 0; under LNSADLDCD [5T4 9-mer peptide 169], 0.
Same read-out and setting: under DCDPILPPS [5T4 9-mer peptide 172] stands 0; under LQGLPHIRV [5T4 9-mer peptide 141], 0.
In turn, ETEVVQGKD [5T4 9-mer peptide 156] had an iScore of 0.
As to VQGKDRLTC [5T4 9-mer peptide 158], the iScore stood at 0.

For the next experiment, the target named is T4, MHC class I allele A*0201 monomer (human, biotinylated, bound to streptavidin-coated plate).
T4 construct: also called A2; HLA-A2
Description: iTopia, multiparametric iScore. As for the experimental part:
as §1, §2
PHIRVFLDN [5T4 9-mer peptide 143] yielded an iScore of 0.
Still for that read-out and setting: under EKMRNRVLL [5T4 9-mer peptide 164] stands 0.096; under DPILPPSLQ [5T4 9-mer peptide 173], 0; under PPSLQTSYV [5T4 9-mer peptide 175], 0.145.
Consider LDNNPWVCD [5T4 9-mer peptide 146], for which the iScore was 0.
Same read-out and setting: to DLDCDPILP [5T4 9-mer peptide 171] belongs 0; to LKETEVVQG [5T4 9-mer peptide 155], 0; to VLLELNSAD [5T4 9-mer peptide 167], 0.105.
Same read-out and setting: under SYVFLGIVL [5T4 9-mer peptide 178] stands 0.118.
On the same count and under the same terms, to QTSYVFLGI [5T4 9-mer peptide 177] belongs 0.127.
VCDCHMADM [5T4 9-mer peptide 149] showed an iScore of 0.061.
The same measure, in the same setting: under MVTWLKETE [5T4 9-mer peptide 153] stands 0.051.
For the molecule NGTLAELQG [5T4 9-mer peptide 138], the iScore came to 0.
Same read-out and setting: under GKDRLTCAY [5T4 9-mer peptide 159] stands 0; under TWLKETEVV [5T4 9-mer peptide 154], 0.184; under NNPWVCDCH [5T4 9-mer peptide 147], 0.
Turning to DRLTCAYPE [5T4 9-mer peptide 160], the iScore worked out at 0.
In the case of PWVCDCHMA [5T4 9-mer peptide 148], the iScore was 0.
The molecule SADLDCDPI [5T4 9-mer peptide 170] returned an iScore of 0.
On the same count and under the same terms, under DCHMADMVT [5T4 9-mer peptide 150] stands 0; under AELQGLPHI [5T4 9-mer peptide 140], 0.
The same measure, in the same setting: under EVVQGKDRL [5T4 9-mer peptide 157] stands 0.139; under ADMVTWLKE [5T4 9-mer peptide 152], 0.
Still for that read-out and setting: to NRVLLELNS [5T4 9-mer peptide 166] belongs 0.031; to LGIVLALIG [5T4 9-mer peptide 180], 0; to CAYPEKMRN [5T4 9-mer peptide 162], 0.
MRNRVLLEL [5T4 9-mer peptide 165] yielded an iScore of 0.
Same read-out and setting: under TLAELQGLP [5T4 9-mer peptide 139] stands 0.083.
As for IRVFLDNNP [5T4 9-mer peptide 144], the iScore amounted to 0.
Still for that read-out and setting: under LELNSADLD [5T4 9-mer peptide 168] stands 0.
As for VFLDNNPWV [5T4 9-mer peptide 145], the iScore was found to be 0.239.
Still for that read-out and setting: under LNSADLDCD [5T4 9-mer peptide 169] stands 0; under DCDPILPPS [5T4 9-mer peptide 172], 0; under LQGLPHIRV [5T4 9-mer peptide 141], 0.2.
Still for that read-out and setting: under ETEVVQGKD [5T4 9-mer peptide 156] stands 0.
The same measure, in the same setting: under VQGKDRLTC [5T4 9-mer peptide 158] stands 0.074.
